B1: DCBPR2002: humanized anti-mesothelin antibody, heavy chain variable region SEQ ID NO: 11, light chain variable region SEQ ID NO: 12 (antibody, V domains shown)
VH: QVQLVQSGAEVKKPGASVKVSCKASGYSFTGYTMNWVRQAPGQGLEWMGLITPYNGASSYNQKFRGRVTMTRDTSISTAYMELSRLRSDDTAVYYCARGGYDGRGFDYWGQGTLVTVSS
VL: EIVLTQSPATLSLSPGERATLSCSASSSVSYMHWYQQKPGQAPRLLIYDTSKLASGIPARFSGSGSGTDFTLTISSLEPEDFAVYYCQQWSKHPLTFGQGTKVEIKR
modifications: Artificial antibody
B2: DCBPR2002-4(DBCO-vc-seco-DUBA): DCBPR2002-4Az reacted with DBCO-vc-seco DUBA; ADC, DAR ~4 (conjugate)
VH: B1 VH
VL: B1 VL
B3: DCBPR2002-2(DBCO-vc-MMAE)-2(DBCO-vc-seco-DUBA): dual-payload ADC: DCBPR2002-2(DBCO-vc-MMAE)-2Az reacted with DBCO-vc-seco DUBA; DAR ~4 (conjugate)
VH: B1 VH
VL: B1 VL

Key:
[1] = test system: KLM-1 human pancreatic cancer xenograft; assay: KLM-1 xenograft model (Example 44); type: in vivo; details: 30 mg/kg IV once weekly for 3 weeks
Description: Each of the formulations was administered intravenously (IV) to the mice once weekly for three weeks.
(§1) Five mice were housed in each cage.
When the average tumor volume had reached 200 mm^3, the mice were randomLy divided into 4 groups (N=6 per group). Each of the vehicle, DCBPR2002-4(DBCO-vc-MMAE) (15 and 30 mg/kg), and naked antibody (DCBPR2002, 30 mg/kg) was intravenously administered once weekly for 3 weeks.
(§2) Differences are considered significant at *P<0.05.

[2] = target: T1, mesothelin protein (Homo sapiens, UniProt Q13421); assay: Affinity measurements and kinetic analysis using BIAcore (SPR), mesothelin immobilised; type: binding
Description: To know the biding kinetics difference among individual antibodies, surface plasmon resonance (SPR) measurement with a BIAcore T200 (Cytiva Inc.) was used as previously described (Karlsson & Falt, (1997) J. Immunol Methods 200:121-133). Carboxymethylated dextran biosensor chips (CM5, Cytiva Inc.) were activated with N-ethyl-N′-(3-dimethylaminopropyl)-carbodiimide hydrochloride (EDC) and N-hydroxysuccinimide (NHS) according to the supplier's instructions. Mesothelin protein was diluted with 10 mM sodium acetate, pH 4.0, into 5 μg/ml before injection at a flow rate of 10 μL/minute to achieve approximately 1500 response units (RU) of coupled protein followed by the injection of 1M ethanolamine to block unreacted groups. For kinetics measurements, two-fold serial dilutions of anti-mesothelin mAb (0.3125 nM to 40 nM) were injected in HBS-EP+ Biacore running buffer provided by the manufacturer (Cytiva Inc.) at 25 degree C. at a flow rate of 30 μL/min, and binding responses on the mesothelin protein were corrected by subtraction of responses on a blank flow cell. Association rates (kon or ka) and dissociation rates (koff or kd) were calculated using a simple one-to-one Langmuir binding model with separate fittings of kon and koff was used. (Cytiva.™. Biacore Insight Evaluation Software).

[3] = target: T1, mesothelin protein; assay: Binding kinetics of anti-mesothelin ADCs by surface plasma resonance (Biacore T100); details: analyte MSLN; for Ka: antibody/ADC captured on CM5 chip via anti-human IgG-Fc; for dissociation rate constant (koff): antibody/ADC captured on CM5 chip
Description: The kinetic constant of the anti-mesothelin ADCs interaction against mesothelin was determined by surface plasma resonance (Biacore® T100, Biacore, Inc., Piscataway, NJ). The flow cell of the CM5 wafer was fixed with approximately 10,000 reaction units (RU) of anti-human IgG-Fc (Biacore®) in 10 mM glycine pH 5.0 at 10 μL/min for 600 seconds. 10 μg/mL of anti-mesothelin antibody and anti-mesothelin ADCs diluted in TBS at 10 μl/min were captured on CM5 chips. Four concentrations (from 3.7 to 100 nM) of human mesothelin recombinant protein and zero concentration (flow buffer) in 100 μl/min binding were recorded in PBS containing 1 mM CaCl2 for 3 minutes. The dissociation of the complex was measured for 10 minutes. The water surface was regenerated by injecting 3 M MgCl2 and 3 mM EGTA at 10 μl/min for 60 seconds. The curve obtained after subtracting the reference and buffer signals was taken into the 1:1 Langmuir binding model using the Biacore® T100 evaluation software (Biacore®).

[4] = test system: OVCAR-3 human ovarian cancer xenograft; assay: OVCAR-3 xenograft model (Example 46); type: in vivo, female NOD SCID mice; details: 15 mg/kg IV once weekly for 3 weeks
Description: as §1
OVCAR-3 cells were subcutaneously (SC) implanted (1×10^7 cells in 1:1 PBS/matrigel mixture at 0.2 mL per mouse) into the right flank of female NOD SCID mice. […] Each of the vehicle, DCBPR2002-4(DBCO-vc-MMAE) (15 and 30 mg/kg), and DCBPR2002-4(DBCO-vc-seco-DUBA) (15 mg/kg) was intravenously administered once weekly for 3 weeks.
as §2

[5] = test system: Ovarian carcinoma cell line OVCAR-3 (MSLN+); assay: In vitro cytotoxicity, CellTiter-Glo luminescent cell viability assay, OVCAR-3; type: cell-based, human; details: OVCAR-3, 72 hours treatment; read-out: Relative IC50 (nM of toxic payload/ADCs)
Description: (§3) The KLM-1 & OVCAR-3 cell lines were maintained in an atmosphere of 5% CO2 in a humidified 37° C. incubator. The day before treatment, cells were collected and seeded into 96-well plates (4,000 cells per well). On the second day, cells were treated with 3-fold serial dilution concentration of toxic payloads and ADCs. Each treatment was performed in eight triplicate data points. After the treatment of 72 hours, cell viability was assessed by CellTiter-Glo® kit (Promega) according to the manufacturer's instruction. At the end of the incubation, luminescence was measured using a SpectraMax i3x Multi Mode Detection Platform (Molecular Devices). Compound cytotoxicity was evaluated in comparison to cells treated with 0.05% PBS (ADCs) or 0.05% DMSO (toxic payload). IC50 values were calculated by fitting viability data with a four-parameter logistic equation using GraphPad prism 5.0 software.

[6] = test system: Pancreatic cancer cell line KLM-1 (MSLN+); assay: In vitro cytotoxicity, CellTiter-Glo luminescent cell viability assay, KLM-1; type: cell-based, human; details: KLM-1, 72 hours treatment; read-out: Relative IC50 (nM of toxic payload/ADCs)
Description: as §3, with “Pancreatic cancer cell line KLM-1 was respectively grown in RPMI 1640 Medium (ATCC modification) medium supplemented with 10% fetal bovine serum. Ovarian carcinoma cell line OVCAR-3 was grown in RPMI 1640 Medium (ATCC modification) medium supplemented with 20% fetal bovine serum. The KLM-1” for “The KLM-1”

[7] = test system: KLM-1 human pancreatic cancer xenograft; assay: KLM-1 xenograft model (Example 45); details: 15 mg/kg IV once weekly for 3 weeks
Description: Formulations respectively comprising test article DCBPR2002-4(DBCO-vc-MMAE)(15 mg/kg), test article DCBPR2002-4(DBCO-vc-seco-DUBA)(15 mg/kg), test article DCBPR2002-4(DBCO-s-DM1) (15 mg/kg), test article DCBPR2002-2(DBCO-vc-MMAE)-2(DBCO-vc-seco-DUBA) (15 mg/kg), test article DCBPR2002-2(DBCO-vc-MMAE)-2(DBCO-s-DM1) (15 mg/kg), test article DCBPR2002-2(DBCO-vc-seco-DUBA)-2(DBCO-s-DM1) (15 mg/kg), and a corresponding vehicle were formulated by diluting the stock with a 25 mM sodium citrate buffer (pH6.5). Each of the formulations was administered intravenously (IV) once weekly for three weeks.
The KLM-1 cells were maintained in vitro as a monolayer culture in RPMI-1640 medium supplemented with 10% fetal bovine serum at 37° C. in an atmosphere of 5% CO2 in air. The tumor cells were routinely sub-cultured twice weekly by trypsin-EDTA treatment. The cells growing in an exponential growth phase were harvested and counted for tumor inoculation.
Male NOD SCID mice at age of 6-7 weeks were purchased from BioLasco Taiwan Co., LTD. and quarantined for one week. Five mice were housed in each cage. All animals were hosted in the animal facility with a 12-h light/12-h dark cycle at 19-25° C. Animals had free access to rodent pellet foods and water ad libitum.
KLM-1 cells were subcutaneously (SC) implanted (4×10^6 cells in 1:1 PBS/matrigel mixture at 0.1 mL per mouse) into the right flank of male NOD SCID mice. When the average tumor volume had reached 300 mm^3, the mice were randomly divided into 7 groups (N=6 per group). Each of the vehicle, DCBPR2002-4(DBCO-vc-MMAE), DCBPR2002-4(DBCO-vc-seco-DUBA), DCBPR2002-4(DBCO-s-DM1), DCBPR2002-2(DBCO-vc-MMAE)-2(DBCO-vc-seco-DUBA), DCBPR2002-2(DBCO-vc-MMAE)-2(DBCO-s-DM1), DCBPR2002-2(DBCO-vc-seco-DUBA)-2(DBCO-s-DM1) was intravenously administered as 15 mg/kg once weekly for 3 weeks.
The tumor volumes, body weights, mortality, and signs of overt toxicity were monitored and recorded three times weekly for 28 days. Tumor volumes were measured three times per week using calipers and calculated according to the formula: Tumor Volume=(w2×l)/2, where w=width and l=length in diameter (mm) of the tumor. […] One-way ANOVA followed by Dunnett's test was applied for comparison between the vehicle and test article-treated groups. Differences are considered significant at *P<0.05. Animals were weighed three times weekly until the completion of the study.

T1 sequence (Q13421 with tags, fused parts or gaps): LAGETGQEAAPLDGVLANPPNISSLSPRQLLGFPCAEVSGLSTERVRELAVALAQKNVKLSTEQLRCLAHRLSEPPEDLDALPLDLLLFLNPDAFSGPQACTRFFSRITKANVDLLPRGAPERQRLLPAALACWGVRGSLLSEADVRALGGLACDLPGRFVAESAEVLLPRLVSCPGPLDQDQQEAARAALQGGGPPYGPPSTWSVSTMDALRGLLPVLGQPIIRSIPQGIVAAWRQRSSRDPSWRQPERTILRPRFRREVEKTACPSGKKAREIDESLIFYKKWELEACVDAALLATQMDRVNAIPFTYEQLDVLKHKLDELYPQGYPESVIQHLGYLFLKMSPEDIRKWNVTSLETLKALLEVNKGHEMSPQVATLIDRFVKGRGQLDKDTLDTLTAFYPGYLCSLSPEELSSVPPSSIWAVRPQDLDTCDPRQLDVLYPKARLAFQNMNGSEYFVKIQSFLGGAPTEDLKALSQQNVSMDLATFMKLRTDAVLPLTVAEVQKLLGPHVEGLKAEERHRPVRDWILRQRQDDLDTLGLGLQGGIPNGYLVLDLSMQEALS

Row | Molecule | body weight changes [1] | tumor growth / anti-tumor activity ([1]; TGI≥58% considered significant) | Rmax(RU) ([2]; BIAcore T200) | ka ([2]; BIAcore T200, 25 degree C, 1:1 Langmuir model) | kd ([2]; BIAcore T200, 25 degree C, 1:1 Langmuir model, listed as HuSS1) | kd ([2]; BIAcore T200, 25 degree C, 1:1 Langmuir model, listed as HuSS1mAb) | Rmax(RU) [3] | Ka [3] | dissociation rate constant (koff) [3] | body weight changes [4] | IC50 [5] | IC50 [6] | body weight changes [7] | ranking of efficacy potency [7]
1 | B1 | No body weight loss was observed | did not show significant anti-tumor activity | 180.6 RU | 4.493e+06 M⁻¹ s⁻¹ | 1.124e-05 s⁻¹ | 1.124e-05 s⁻¹ | 58.1 RU | 5.091E+6 | 8.593E−5 |  |  |  |  | 
2 | B2 |  |  |  |  |  |  |  |  |  | No body weight loss was observed | 23.9 nM | 19.4 nM | No body weight loss was observed | DCBPR2002-4(DBCO-vc-seco-DUBA)=DCBPR2002-2(DBCO-vc-MMAE)-2(DBCO-vc-seco-DUBA)=DCBPR2002-2(DBCO-vc-seco-DUBA)-2(DBCO-s-DM1)>DCBPR2002-4(DBCO-vc-MMAE)>DCBPR2002-2(DBCO-vc-MMAE)-2(DBCO-s-DM1)>DCBPR2002-4(DBCO-s-DM1)
3 | B3 |  |  |  |  |  |  | 50.98 RU | 4.752E+6 | 1.218E−4 |  | 43.3 nM | 46 nM | No body weight loss was observed | DCBPR2002-4(DBCO-vc-seco-DUBA)=DCBPR2002-2(DBCO-vc-MMAE)-2(DBCO-vc-seco-DUBA)=DCBPR2002-2(DBCO-vc-seco-DUBA)-2(DBCO-s-DM1)>DCBPR2002-4(DBCO-vc-MMAE)>DCBPR2002-2(DBCO-vc-MMAE)-2(DBCO-s-DM1)>DCBPR2002-4(DBCO-s-DM1)

From patent US11998613B2, “Antibody-drug conjugates containing an anti-mesothelin antibody and uses thereof” (DEVELOPMENT CENTER FOR BIOTECHNOLOGY, priority 2020, dated 2024)
